Source: patent publication US20240043551A1 (ADLAI NORTYE BIOPHARMA, published 2024)

T1: Human TNFR1 (Acro Biosystem, TN1-H5222) (human, UniProt P19438 30-211)
T1 construct: Bought protein; also called TNF receptor type 1; CD120a
T1 sequence (looked up): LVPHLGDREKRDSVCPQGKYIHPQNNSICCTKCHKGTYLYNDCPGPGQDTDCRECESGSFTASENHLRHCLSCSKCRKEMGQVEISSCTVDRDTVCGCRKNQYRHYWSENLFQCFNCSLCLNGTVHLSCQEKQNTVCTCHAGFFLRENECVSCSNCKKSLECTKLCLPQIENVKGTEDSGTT

T2: mouse TNFR2 (R&D systems, 426-R2-050/CF) (mouse, UniProt P25119 23-258)
T2 construct: Bought protein
T2 sequence (looked up): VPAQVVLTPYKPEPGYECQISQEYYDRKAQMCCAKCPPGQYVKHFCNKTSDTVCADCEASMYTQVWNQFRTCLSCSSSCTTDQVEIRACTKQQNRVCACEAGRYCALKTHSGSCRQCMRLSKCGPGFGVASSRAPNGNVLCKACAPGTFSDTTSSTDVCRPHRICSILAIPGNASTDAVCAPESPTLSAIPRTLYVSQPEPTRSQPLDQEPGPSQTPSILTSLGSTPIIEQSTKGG

T3: rat TNFR2 (R&D systems, 8348-R2-050) (rat, UniProt Q80WY6 23-258)
T3 construct: Bought protein
T3 sequence (looked up): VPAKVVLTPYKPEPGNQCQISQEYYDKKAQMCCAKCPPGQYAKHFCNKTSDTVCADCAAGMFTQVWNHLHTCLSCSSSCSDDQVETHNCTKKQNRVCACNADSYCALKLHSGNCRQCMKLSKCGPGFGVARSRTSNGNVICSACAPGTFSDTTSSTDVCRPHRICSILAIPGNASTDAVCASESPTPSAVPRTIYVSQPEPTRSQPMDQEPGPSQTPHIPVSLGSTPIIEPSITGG

B1: TN36-10 (antibody, V domains shown)
VH: EVQLVESGGGLIQPGGSLRLSCAASGFSLSSSAVSWVRQAPGKGLEWIGAIGSGGTSYYSNWAKSRFTISRDTSKNTVYLQMNSLRAEDTAVYFCARDPNSSDYPYGAYGMGLWGPGTLVTVSS
VL: DIQMTQSPSSLSASVGDRVTITCQVSQSISSYLSWYQQKPGKAPKLLIYYASTLASGVPSRFSGSGSGTDFTLTISSLQPEDFATYYCQQGYITSNVGNAFGGGTKVEIK
notes: Humanized; also called AL4/AL8
B2: TN36-11 (antibody, human IgG1, V domains shown)
VH: EVQLVESGGGLIQPGGSLRLSCAASGFSLSSSAVSWVRQAPGKGLEWIGAIGSGGTSYYSNWAKSRFTISRDTSKNTVYLQMNSLRAEDTAVYFCARDPNSSDYPYGAYGMGLWGPGTLVTVSS
VL: DIQMTQSPSSLSASVGDRVTITCQVSQSISSYLSWYQQKPGKPPKLLIYYASTLASGVPSRFSGSGSGTDFTLTISSLQPEDFATYYCQQGYITSNVGNAFGGGTKVEIK
notes: Humanized; also called AL4/AL9
B3: TN36-12 (antibody, human IgG1, V domains shown)
VH: EVQLVESGGGLIQPGGSLRLSCAASGFSLSSSAVSWVRQAPGKGLEWIGAIGSGGTSYYSNWAKSRFTISRDTSKNTVYLQMNSLRAEDTAVYFCARDPNSSDYPYGAYGMGLWGPGTLVTVSS
VL: DIQMTQSPSFLSASVGDRVTITCQVSQSISSYLSWYQQKPGKAPKLLIYYASTLASGVPSRFSGSGSGTDFTLTISSLQPEDFATYYCQQGYITSNVGNAFGGGTKVEIK
notes: Humanized; also called AL4/AL10
B4: TN36-13 (antibody, human IgG1, V domains shown)
VH: EVQLVESGGGLIQPGGSLRLSCAASGFSLSSSAVSWVRQAPGKGLEWIGAIGSGGTSYYSNWAKSRFTISRDTSKNTVYLQMNSLRAEDTAVYFCARDPNSSDYPYGAYGMGLWGPGTLVTVSS
VL: DIQLTQSPSFLSASVGDRVTITCQVSQSISSYLSWYQQKPGKAPKLLIYYASTLASGVPSRFSGSGSGTEFTLTISSLQPEDFATYYCQQGYITSNVGNAFGGGTKVEIK
notes: Humanized; also called AL4/AL11
B5: TN36-14 (antibody, human IgG1, V domains shown)
VH: EVQLVESGGGLVQPGGSLRLSCAASGFSLSSSAVSWVRQAPGKGLEWIGAIGSGGTSYYSNWAKSRFTISRDNSKNTLYLQMNSLRAEDTAVYYCARDPNSSDYPYGAYGMGLWGQGTLVTVSS
VL: DIQMTQSPSSLSASVGDRVTITCQVSQSISSYLSWYQQKPGKAPKLLIYYASTLASGVPSRFSGSGSGTDFTLTISSLQPEDFATYYCQQGYITSNVGNAFGGGTKVEIK
notes: Humanized; also called AL5/AL8
B6: TN36-15 (antibody, human IgG1, V domains shown)
VH: EVQLVESGGGLVQPGGSLRLSCAASGFSLSSSAVSWVRQAPGKGLEWIGAIGSGGTSYYSNWAKSRFTISRDNSKNTLYLQMNSLRAEDTAVYYCARDPNSSDYPYGAYGMGLWGQGTLVTVSS
VL: DIQMTQSPSSLSASVGDRVTITCQVSQSISSYLSWYQQKPGKPPKLLIYYASTLASGVPSRFSGSGSGTDFTLTISSLQPEDFATYYCQQGYITSNVGNAFGGGTKVEIK
notes: Humanized; also called AL5/AL9
B7: TN36-16 (antibody, human IgG1, V domains shown)
VH: EVQLVESGGGLVQPGGSLRLSCAASGFSLSSSAVSWVRQAPGKGLEWIGAIGSGGTSYYSNWAKSRFTISRDNSKNTLYLQMNSLRAEDTAVYYCARDPNSSDYPYGAYGMGLWGQGTLVTVSS
VL: DIQMTQSPSFLSASVGDRVTITCQVSQSISSYLSWYQQKPGKAPKLLIYYASTLASGVPSRFSGSGSGTDFTLTISSLQPEDFATYYCQQGYITSNVGNAFGGGTKVEIK
notes: Humanized; also called AL5/AL10
B8: TN36-17 (antibody, human IgG1, V domains shown)
VH: EVQLVESGGGLVQPGGSLRLSCAASGFSLSSSAVSWVRQAPGKGLEWIGAIGSGGTSYYSNWAKSRFTISRDNSKNTLYLQMNSLRAEDTAVYYCARDPNSSDYPYGAYGMGLWGQGTLVTVSS
VL: DIQLTQSPSFLSASVGDRVTITCQVSQSISSYLSWYQQKPGKAPKLLIYYASTLASGVPSRFSGSGSGTEFTLTISSLQPEDFATYYCQQGYITSNVGNAFGGGTKVEIK
notes: Humanized; also called AL5/AL11
B9: TN36-18 (antibody, human IgG1, V domains shown)
VH: EVQLVESGGGLVQPGGSLRLSCAASGFSLSSSAVSWVRQAPGKGLEWIGAIGSGGTSYYSNWAKSRFTISRDNSKNTLYLQMNSLRAEDTAVYYCARDPNSSDYPYGAYGMGLWGPGTLVTVSS
VL: DIQMTQSPSSLSASVGDRVTITCQVSQSISSYLSWYQQKPGKAPKLLIYYASTLASGVPSRFSGSGSGTDFTLTISSLQPEDFATYYCQQGYITSNVGNAFGGGTKVEIK
notes: Humanized; also called AL6/AL8
B10: TN36-19 (antibody, human IgG1, V domains shown)
VH: EVQLVESGGGLVQPGGSLRLSCAASGFSLSSSAVSWVRQAPGKGLEWIGAIGSGGTSYYSNWAKSRFTISRDNSKNTLYLQMNSLRAEDTAVYYCARDPNSSDYPYGAYGMGLWGPGTLVTVSS
VL: DIQMTQSPSSLSASVGDRVTITCQVSQSISSYLSWYQQKPGKPPKLLIYYASTLASGVPSRFSGSGSGTDFTLTISSLQPEDFATYYCQQGYITSNVGNAFGGGTKVEIK
notes: Humanized; also called AL6/AL9
B11: TN36-20 (antibody, human IgG1, V domains shown)
VH: EVQLVESGGGLVQPGGSLRLSCAASGFSLSSSAVSWVRQAPGKGLEWIGAIGSGGTSYYSNWAKSRFTISRDNSKNTLYLQMNSLRAEDTAVYYCARDPNSSDYPYGAYGMGLWGPGTLVTVSS
VL: DIQMTQSPSFLSASVGDRVTITCQVSQSISSYLSWYQQKPGKAPKLLIYYASTLASGVPSRFSGSGSGTDFTLTISSLQPEDFATYYCQQGYITSNVGNAFGGGTKVEIK
notes: Humanized; also called AL6/AL10

Experiments:
[1] = biological target: T1, Human TNFR1 (Acro Biosystem, TN1-H5222); assay: ELISA, receptor coated at 1 µg/mL
Experimental: (§1) Human TNFR2 (Acro Biosystem, TN2-H5227), Human TNFR1 (Acro Biosystem, TN1-H5222), Cynomolgus TNFR2 (Sino Biological, 90102-CO8H) or mouse TNFR2 (R&D systems, 426-R2-050/CF) was coated on high binding polystyrene flat bottom micro-titer plates (Thermo Scientific, 3455) in PBS (PH=7.4, Gibco,10010-031) at 1 μg/mL and 100 μL per well. Plates were incubated at 4° C. overnight.
(§2) Plates were warmed up to room temperature the next day and washed with 200 μL PBS containing 0.1% Tween 20 (Life technologies, 003005) per well for 3 times. Plates were blocked with 200 μL PBS buffer containing 1% BSA (Fisher Scientific, BP1600-100) per well for 1 hour at 37° C. Antibodies was titrated from 5 μg/mL in a 5-fold dilution series, distributed 100 μL per well and incubated at 37° C. for 1 hour. Human IgG1 isotype control (BioxCell, BE0297) was used as negative control. Plates were washed with 200 μL PBS containing 0.1% Tween 20 (Life technologies, 003005) per well for 3 times. Goat anti-Human IgG Fc Secondary Antibody-HRP conjugate (Invitrogen, A18817) were distributed at 0.5μg/mL and 100 μL per well to detect bound antibodies. After 1-hour incubation of secondary antibody at 37° C., plates were washed with 200 μL PBS containing 0.1% Tween 20 (Life technologies, 003005) per well for 3 times. Plates were developed using TMB Substrate Solution (eBioscience, 00-4201-56) and stopped with ELISA stop solution (Invitrogen, SSO4). The level of bound antibodies was determined by reading absorbance at 450 nm. Mouse anti-human TNFR1 antibody (ThermoFisher Scientific, MA1-81005) and goat anti mouse IgG secondary antibody-HRP conjugate (Invitrogen, 62-5520) were used as positive control for human TNFR1 detection. Armenian Hamster anti-mouse TNFR2 antibody (InVivoMab, BE0247) and HRP-Goat anti-Armenian Hamster IgG (H+L) Secondary Antibody (Invitrogen, PA1-32045) were used as positive control for mouse TNFR2 detection.

[2] = biological target: T2, mouse TNFR2 (R&D systems, 426-R2-050/CF); assay: ELISA, receptor coated at 1 µg/mL
Experimental: as §1, §2

[3] = biological target: T3, rat TNFR2 (R&D systems, 8348-R2-050); assay: ELISA, receptor coated at 1 µg/ml
Experimental: Plates were incubated at 4° C. overnight. Antibodies was titrated from 100 μg/ml in a 5-fold dilution series, and distributed 100 μL, per well and incubated at 37° C. for 1 hour. Human IgG1 isotype control (BioxCell, BE0297) was used as negative control. TNFR2 Polyclonal Antibody (Invitrogen, PAS-80159) and HRP conjugated Goat anti-Rabbit IgG Fc Secondary Antibody (Invitrogen, A16116) were used as positive control for rat TNFR2 detection.

Binder | binding result [1] | binding result [2] | binding result [3]
B1 | no binding (tested: titrated from 5 µg/mL) | no binding (tested: titrated from 5 µg/mL) | no binding (tested: titrated from 100 µg/ml)
B2 | no binding (tested: titrated from 5 µg/mL) | no binding (tested: titrated from 5 µg/mL) | no binding (tested: titrated from 100 µg/ml)
B3 | no binding (tested: titrated from 5 µg/mL) | no binding (tested: titrated from 5 µg/mL) | no binding (tested: titrated from 100 µg/ml)
B4 | no binding (tested: titrated from 5 µg/mL) | no binding (tested: titrated from 5 µg/mL) | no binding (tested: titrated from 100 µg/ml)
B5 | no binding (tested: titrated from 5 µg/mL) | no binding (tested: titrated from 5 µg/mL) | no binding (tested: titrated from 100 µg/ml)
B6 | no binding (tested: titrated from 5 µg/mL) | no binding (tested: titrated from 5 µg/mL) | no binding (tested: titrated from 100 µg/ml)
B7 | no binding (tested: titrated from 5 µg/mL) | no binding (tested: titrated from 5 µg/mL) | no binding (tested: titrated from 100 µg/ml)
B8 | no binding (tested: titrated from 5 µg/mL) | no binding (tested: titrated from 5 µg/mL) | no binding (tested: titrated from 100 µg/ml)
B9 | no binding (tested: titrated from 5 µg/mL) | no binding (tested: titrated from 5 µg/mL) | no binding (tested: titrated from 100 µg/ml)
B10 | no binding (tested: titrated from 5 µg/mL) | no binding (tested: titrated from 5 µg/mL) | no binding (tested: titrated from 100 µg/ml)
B11 | no binding (tested: titrated from 5 µg/mL) | no binding (tested: titrated from 5 µg/mL) | no binding (tested: titrated from 100 µg/ml)
